Experimental data reported in PMC5356885 (Oncotarget, 2016).

B1: histidine-tagged recombinant v-Myc bHLH-LZ fragment for NMR (131-amino acid construct, S314-A416) (domain or fragment)
chain: SNNRKCSSPRTLDSEENDKRRTHNVLERQRRNELKLRFFALRDQIPEVANNEKAPKVVILKKATEYVLSLQSDEHKLIAEKEQLRRRREQLKHNLEQLRNSRA
B2: tag-free Myc (v-Myc bHLH-LZ fragment without the histidine tag) (domain or fragment)
chain: B1 chain
modifications: ^15N-labelled

Biological target: T1, recombinant CaM for NMR (pETM11-CaM, tag cleaved) (UniProt P62149 1-149)
T1 construct: also called ^14N-CaM; ^15N-CaM
Experiment: NMR titration
Details: both partners purified

Row | Binder | binding result
1 | B1 | binds
2 | B2 | binds
